Measured values from US10941182 (Amgen, dated 2021).
Starred links: 1 amine or outer side, 2 acyl side, 3 side chain; linkers in the order of their positions; H or OH if unused. Non-standard residues stand in square brackets, D forms with d. *: point of attachment. AC4Abu = α-carboxy-4-aminobutyric acid, O=C(C(CCN[*:1])C(=O)[*:3])[*:2]; Oic = O=C(O)[C@@H]1C[C@@H]2CCCC[C@@H]2N1; Phe(4-Cl) = N[C@@H](Cc1ccc(Cl)cc1)C(=O)O; dPhe(4-Cl) = N[C@H](Cc1ccc(Cl)cc1)C(=O)O; γGlu = O=C(O)[C@H](CCC(=O)[*:2])N[*:1]; NMeR = CN[C@@H](CCCNC(=N)N)C(=O)O; Tridecanoyl = CCCCCCCCCCCCC(=O)*; hArg = N=C(N)NCCCC[C@H](N)C(=O)O; Cha = N[C@@H](CC1CCCCC1)C(=O)O; αMeL = CC(C)C[C@](C)(N)C(=O)O; β3hN = NC(=O)C[C@H](N)CC(=O)O; β3hL = CC(C)C[C@H](N)CC(=O)O; αMeP = C[C@@]1(C(=O)O)CCCN1; Nle = CCCC[C@H](N)C(=O)O; Deg = CCC(N)(CC)C(=O)O; AEEA = NCCOCCOCC(=O)O; Aib = CC(C)(N)C(=O)O; BLeu = β-leucine

T1: human APJ receptor (human, UniProt P35414 1-380)
T1 sequence (looked up): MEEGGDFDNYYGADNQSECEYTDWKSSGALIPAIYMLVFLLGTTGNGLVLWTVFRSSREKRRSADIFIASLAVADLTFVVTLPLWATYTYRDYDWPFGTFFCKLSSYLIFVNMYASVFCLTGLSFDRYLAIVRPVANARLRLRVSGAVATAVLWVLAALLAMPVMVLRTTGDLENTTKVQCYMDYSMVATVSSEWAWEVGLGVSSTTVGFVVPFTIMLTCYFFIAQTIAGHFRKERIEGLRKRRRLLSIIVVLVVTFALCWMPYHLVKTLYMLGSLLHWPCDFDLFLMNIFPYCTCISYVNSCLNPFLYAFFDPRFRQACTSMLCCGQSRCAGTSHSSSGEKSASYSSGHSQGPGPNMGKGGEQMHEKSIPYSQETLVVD

T2: rat APJ receptor (rat, UniProt Q9JHG3 1-377)
T2 sequence (looked up): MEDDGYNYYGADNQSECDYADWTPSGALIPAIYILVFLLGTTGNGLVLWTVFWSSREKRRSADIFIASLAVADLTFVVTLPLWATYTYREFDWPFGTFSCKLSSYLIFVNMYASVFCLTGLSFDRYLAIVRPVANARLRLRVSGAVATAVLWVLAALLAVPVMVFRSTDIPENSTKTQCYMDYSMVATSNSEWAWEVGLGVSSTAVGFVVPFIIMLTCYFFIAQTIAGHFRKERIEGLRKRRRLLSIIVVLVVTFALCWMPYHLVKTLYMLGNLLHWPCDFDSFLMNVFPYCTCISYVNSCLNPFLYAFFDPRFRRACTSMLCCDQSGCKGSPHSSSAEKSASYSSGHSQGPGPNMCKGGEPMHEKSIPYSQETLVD


Experiments:
human APJ receptor = target: T1, human APJ receptor; assay: cell-based or functional assay
rat APJ receptor = target: T2, rat APJ receptor; assay: cell-based or functional assay

Row | Binder | EC50 Human APJ Receptor (human APJ receptor) | EC50 Rat APJ Receptor (rat APJ receptor)
1 | Tridecanoyl-[γGlu][AEEA][AEEA][β3hN][hArg]P[NMeR][Cha]SHKG[Oic][Nle]P[dPhe(4-Cl)]-OH (SMILES CCCCCCCCCCCCC(=O)N[C@@H](CCC(=O)NCCOCCOCC(=O)NCCOCCOCC(=O)N[C@@H](CC(N)=O)CC(=O)N[C@@H](CCCCNC(=N)N)C(=O)N1CCC[C@H]1C(=O)N(C)[C@@H](CCCNC(=N)N)C(=O)N[C@@H](CC1CCCCC1)C(=O)N[C@@H](CO)C(=O)N[C@@H](Cc1c[nH]cn1)C(=O)N[C@@H](CCCCN)C(=O)NCC(=O)N1[C@H](C(=O)N[C@@H](CCCC)C(=O)N2CCC[C@H]2C(=O)N[C@H](Cc2ccc(Cl)cc2)C(=O)O)C[C@@H]2CCCC[C@@H]21)C(=O)O) [SEQ ID NO: 299] | 24.4 nM | 14.6 nM
2 | Tridecanoyl-[AC4Abu][AEEA][AC4Abu][dQ]RP[NMeR][Cha]SHKG[Oic][Nle][Aib][Phe(4-Cl)]-OH (SMILES CCCCCCCCCCCCC(=O)NCCC(C(=O)O)C(=O)NCCOCCOCC(=O)NCCC(C(=O)O)C(=O)N[C@H](CCC(N)=O)C(=O)N[C@@H](CCCNC(=N)N)C(=O)N1CCC[C@H]1C(=O)N(C)[C@@H](CCCNC(=N)N)C(=O)N[C@@H](CC1CCCCC1)C(=O)N[C@@H](CO)C(=O)N[C@@H](Cc1c[nH]cn1)C(=O)N[C@@H](CCCCN)C(=O)NCC(=O)N1[C@H](C(=O)N[C@@H](CCCC)C(=O)NC(C)(C)C(=O)N[C@@H](Cc2ccc(Cl)cc2)C(=O)O)C[C@@H]2CCCC[C@@H]21) [SEQ ID NO: 536] | 0.592 nM | 2.03 nM
3 | Tridecanoyl-[γGlu][AEEA][AEEA][αMeL]RP[NMeR][αMeL]SHKG[Oic][Nle]P[Phe(4-Cl)]-OH (SMILES CCCCCCCCCCCCC(=O)N[C@@H](CCC(=O)NCCOCCOCC(=O)NCCOCCOCC(=O)N[C@@](C)(CC(C)C)C(=O)N[C@@H](CCCNC(=N)N)C(=O)N1CCC[C@H]1C(=O)N(C)[C@@H](CCCNC(=N)N)C(=O)N[C@@](C)(CC(C)C)C(=O)N[C@@H](CO)C(=O)N[C@@H](Cc1c[nH]cn1)C(=O)N[C@@H](CCCCN)C(=O)NCC(=O)N1[C@H](C(=O)N[C@@H](CCCC)C(=O)N2CCC[C@H]2C(=O)N[C@@H](Cc2ccc(Cl)cc2)C(=O)O)C[C@@H]2CCCC[C@@H]21)C(=O)O) [SEQ ID NO: 375] | 0.155 nM | 0.288 nM
4 | Tridecanoyl-[γGlu][AEEA][AEEA][BLeu][hArg]P[NMeR][Cha]SHKG[Oic][Nle]P[dPhe(4-Cl)]-OH [SEQ ID NO: 298] | 32.8 nM | 24.9 nM
5 | Tridecanoyl-[AC4Abu][AEEA][AEEA][BLeu]R[αMeP][hArg][αMeL]SHKG[Oic][Nle][αMeP][Phe(4-Cl)]-OH [SEQ ID NO: 552] | 1.96 nM | 4.88 nM
6 | Tridecanoyl-[γGlu][AEEA][AEEA][Deg]RP[NMeR][Cha]SHKG[Oic][Nle]P[Phe(4-Cl)]-OH (SMILES CCCCCCCCCCCCC(=O)N[C@@H](CCC(=O)NCCOCCOCC(=O)NCCOCCOCC(=O)NC(CC)(CC)C(=O)N[C@@H](CCCNC(=N)N)C(=O)N1CCC[C@H]1C(=O)N(C)[C@@H](CCCNC(=N)N)C(=O)N[C@@H](CC1CCCCC1)C(=O)N[C@@H](CO)C(=O)N[C@@H](Cc1c[nH]cn1)C(=O)N[C@@H](CCCCN)C(=O)NCC(=O)N1[C@H](C(=O)N[C@@H](CCCC)C(=O)N2CCC[C@H]2C(=O)N[C@@H](Cc2ccc(Cl)cc2)C(=O)O)C[C@@H]2CCCC[C@@H]21)C(=O)O) [SEQ ID NO: 443] | 2.31 nM | 1.67 nM
7 | Tridecanoyl-[γGlu][AEEA][AEEA][β3hL][hArg]P[NMeR][Cha]SHKG[Oic][Nle]P[dPhe(4-Cl)]-OH (SMILES CCCCCCCCCCCCC(=O)N[C@@H](CCC(=O)NCCOCCOCC(=O)NCCOCCOCC(=O)N[C@H](CC(=O)N[C@@H](CCCCNC(=N)N)C(=O)N1CCC[C@H]1C(=O)N(C)[C@@H](CCCNC(=N)N)C(=O)N[C@@H](CC1CCCCC1)C(=O)N[C@@H](CO)C(=O)N[C@@H](Cc1c[nH]cn1)C(=O)N[C@@H](CCCCN)C(=O)NCC(=O)N1[C@H](C(=O)N[C@@H](CCCC)C(=O)N2CCC[C@H]2C(=O)N[C@H](Cc2ccc(Cl)cc2)C(=O)O)C[C@@H]2CCCC[C@@H]21)CC(C)C)C(=O)O) [SEQ ID NO: 300] | 41.5 nM | 36.4 nM
8 | XXXLRPRLSHKGPXPF ({TDA}[AC4Abu][Aeea][Aeea][BhLeu]RP[NMeArg]LSHKGP[Nle]P[4-Cl-F]{COOH}) [SEQ ID NO: 421] | 0.0934 nM | 0.285 nM
9 | Tridecanoyl-[γGlu][AEEA][AEEA][BLeu]RP[hArg][BLeu]SHKG[Oic][Nle]P[Phe(4-Cl)]-OH [SEQ ID NO: 395] | 0.741 nM | 1.02 nM
10 | Tridecanoyl-[γGlu][AEEA][AEEA][BLeu]RP[NMeR][αMeL]SHKG[Oic][Nle][αMeP][Phe(4-Cl)]-OH [SEQ ID NO: 388] | 0.706 nM | 0.727 nM
11 | XXXQRPRLSHKGPXPF ({TDA}[AC4Abu][AC4Abu][Aeea]QRP[NMeArg]LSHKGP[Nle]P[4-Cl-F]{COOH}) [SEQ ID NO: 462] | 0.0154 nM | 0.0793 nM
12 | Tridecanoyl-[AC4Abu][AEEA][AEEA][Deg][hArg]P[dR][Cha]SHKG[Oic][Nle]P[Phe(4-Cl)]-OH (SMILES CCCCCCCCCCCCC(=O)NCCC(C(=O)O)C(=O)NCCOCCOCC(=O)NCCOCCOCC(=O)NC(CC)(CC)C(=O)N[C@@H](CCCCNC(=N)N)C(=O)N1CCC[C@H]1C(=O)N[C@H](CCCNC(=N)N)C(=O)N[C@@H](CC1CCCCC1)C(=O)N[C@@H](CO)C(=O)N[C@@H](Cc1c[nH]cn1)C(=O)N[C@@H](CCCCN)C(=O)NCC(=O)N1[C@H](C(=O)N[C@@H](CCCC)C(=O)N2CCC[C@H]2C(=O)N[C@@H](Cc2ccc(Cl)cc2)C(=O)O)C[C@@H]2CCCC[C@@H]21) [SEQ ID NO: 558] | 3.4 nM | 12.5 nM
13 | Tridecanoyl-[γGlu][AEEA][AEEA][BLeu]RP[NMeR][Cha]SHKG[Oic][Nle]P[Phe(4-Cl)]-OH [SEQ ID NO: 393] | 0.769 nM | 2.67 nM
14 | Tridecanoyl-[γGlu][AEEA][AEEA][BLeu]RP[NMeR][αMeL]SHKG[Oic][Nle]P[Phe(4-Cl)]-OH [SEQ ID NO: 374] | 0.305 nM | 0.503 nM
15 | Tridecanoyl-[γGlu][AEEA][AEEA][BLeu]RP[NMeR][BLeu]SHKG[Oic][Nle]P[Phe(4-Cl)]-OH [SEQ ID NO: 394] | 0.297 nM | 1.5 nM
16 | XXXXXXXQRPRLSHKGPXPF ({TDA}[AC4Abu][Aeea][Aeea][Aeea][Aeea][Aeea][Aeea]QRP[NMeArg]LSHKGP[Nle]P[4-Cl-F]{COOH}) [SEQ ID NO: 398] | 0.0573 nM | 0.116 nM
17 | Tridecanoyl-[AC4Abu][AC4Abu][dQ]RP[NMeR][Cha]SHKG[Oic][Nle][Aib][Phe(4-Cl)]-OH (SMILES CCCCCCCCCCCCC(=O)NCCC(C(=O)O)C(=O)NCCC(C(=O)O)C(=O)N[C@H](CCC(N)=O)C(=O)N[C@@H](CCCNC(=N)N)C(=O)N1CCC[C@H]1C(=O)N(C)[C@@H](CCCNC(=N)N)C(=O)N[C@@H](CC1CCCCC1)C(=O)N[C@@H](CO)C(=O)N[C@@H](Cc1c[nH]cn1)C(=O)N[C@@H](CCCCN)C(=O)NCC(=O)N1[C@H](C(=O)N[C@@H](CCCC)C(=O)NC(C)(C)C(=O)N[C@@H](Cc2ccc(Cl)cc2)C(=O)O)C[C@@H]2CCCC[C@@H]21) [SEQ ID NO: 533] | 0.629 nM | 3.88 nM
18 | Tridecanoyl-[γGlu][AEEA][AEEA][β3hN]RP[NMeR]LSHKGP[Nle]P[Phe(4-Cl)]-OH (SMILES CCCCCCCCCCCCC(=O)N[C@@H](CCC(=O)NCCOCCOCC(=O)NCCOCCOCC(=O)N[C@@H](CC(N)=O)CC(=O)N[C@@H](CCCNC(=N)N)C(=O)N1CCC[C@H]1C(=O)N(C)[C@@H](CCCNC(=N)N)C(=O)N[C@@H](CC(C)C)C(=O)N[C@@H](CO)C(=O)N[C@@H](Cc1c[nH]cn1)C(=O)N[C@@H](CCCCN)C(=O)NCC(=O)N1CCC[C@H]1C(=O)N[C@@H](CCCC)C(=O)N1CCC[C@H]1C(=O)N[C@@H](Cc1ccc(Cl)cc1)C(=O)O)C(=O)O) [SEQ ID NO: 420] | 0.0525 nM | 0.0838 nM
